Experimental findings from the supplement of paper PMC10724198 are described below.

± gives the standard deviation of the averaged measurements.
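Note: PSI is a weighted mean of sequencing reads over stability bins, variants kept only with over 10 reads, mCherry proximal and sfGFP distal, peptide attached via GGGS linker.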

For this series, the system named is Saccharomyces cerevisiae. The series is described as follows: protein stability index of tFT-peptide fusion (C-terminal peptide) (PSI (0-1 scale)); higher = more stable (slower turnover). The conditions noted are these: genetic background: wild type; temperature: 30 C.
Sequence SWRKGAHRPVEV showed a protein stability index of 0.66 ± 0.036.

SWRRAASSGGGE: the protein stability index came out at 0.618 ± 0.074.

For SWSVSVNMVGQS, the protein stability index is 0.6829 ± 0.0042.

SWVFSVDNGLVV registered a protein stability index of 0.6133 ± 0.0012.

Consider SWYQPSLREYAQ, for which the protein stability index worked out at 0.74268 ± 0.00062.

SWYSRARMAGEG had a protein stability index of 0.652 ± 0.0093.

In the case of SYGTIGYLATSF, the protein stability index amounted to 0.687 ± 0.075.

Consider SYLRGPIVTGFG, for which the protein stability index was determined as 0.712 ± 0.077.

The sequence SYLVLLHDRGMK returned a protein stability index of 0.665 ± 0.011.

Take SYMCRCALDCFL: the protein stability index worked out at 0.643 ± 0.035.

In turn, SYPSGFPSPSHP showed a protein stability index of 0.834 ± 0.062.

The sequence SYRHHPTVPSTY registered a protein stability index of 0.705 ± 0.057.

SYRPPYTQPTDL registered a protein stability index of 0.658 ± 0.064.

Take TAPGYLGFSPFE: the protein stability index was determined as 0.713 ± 0.034.

Regarding TARIIAHPQTRI, the protein stability index came out at 0.661 ± 0.032.

TARQNRARPGHP yielded a protein stability index of 0.678 ± 0.022.

TASPAHTPTKTR returned a protein stability index of 0.608 ± 0.051.

Sequence TCAPTRISRTPG had a protein stability index of 0.6883 ± 0.00073.

TCFPDLLVLPAR showed a protein stability index of 0.7008 ± 0.0022.

Take TCFWFTCSDPFF: the protein stability index was 0.773 ± 0.096.

On to TCLWVCAWGFGG, for which the protein stability index is 0.716 ± 0.011.

Regarding TCVLPDLNTRWS, the protein stability index worked out at 0.685 ± 0.02.

In the case of TDCAPRGGRWKR, the protein stability index stood at 0.656 ± 0.14.

TDFPRDFPPVDL: the protein stability index is 0.7526 ± 0.0029.

Turning to TEVWSGFARWGG, the protein stability index was determined as 0.675 ± 0.046.

TFFFLGSVFSLA displayed a protein stability index of 0.638 ± 0.043.

Take TFFLPPSCFYPP: the protein stability index was 0.616 ± 0.051.

TFNRIFGNALPG: the protein stability index worked out at 0.688 ± 0.044.

In the case of TFPATSLPSFSL, the protein stability index was determined as 0.6861 ± 0.0031.

Consider TFPKKKGLLNIS, for which the protein stability index amounted to 0.636 ± 0.028.

TFRKMEKKKDGG showed a protein stability index of 0.652 ± 0.018.

Take TGAPSKQYDRFL: the protein stability index amounted to 0.747 ± 0.045.

Consider TGEFILLFSWFV, for which the protein stability index is 0.584 ± 0.0024.

The sequence TGEIREEWRKNI yielded a protein stability index of 0.54 ± 0.03.

TGHFSTTPPRPH displayed a protein stability index of 0.714 ± 0.077.

TGKTHSGNKYER yielded a protein stability index of 0.684 ± 0.059.

TGSLLWGCFALL registered a protein stability index of 0.623 ± 0.054.

For TGVSTRVTHTAP, the protein stability index is 0.707 ± 0.014.

In turn, TGYDERSRFIEI displayed a protein stability index of 0.68 ± 0.1.

THGMFVFSPPWF displayed a protein stability index of 0.785 ± 0.1.

For the sequence THHTPKILNTKR, the protein stability index is 0.708 ± 0.063.

Sequence THPPLTSRSSPP registered a protein stability index of 0.654 ± 0.044.

THPPSFHPSRAP returned a protein stability index of 0.693 ± 0.092.

THSLCIKPRTVV showed a protein stability index of 0.517 ± 0.0056.

For THSTLRRFSGYS, the protein stability index worked out at 0.7005 ± 0.001.

In the case of TIIEHYMMINEK, the protein stability index was 0.692 ± 0.064.

Turning to TILPWCLFLVAD, the protein stability index stood at 0.6 ± 0.0098.

In turn, TISRIQTNINKK yielded a protein stability index of 0.742 ± 0.18.

Regarding TKEFKKTNTTGY, the protein stability index came to 0.7406 ± 0.0039.

On to TKFKPKILEKCT, for which the protein stability index was found to be 0.686 ± 0.021.

TKIKETTKKKQL displayed a protein stability index of 0.522 ± 0.059.

In turn, TKKKKKEKGDST returned a protein stability index of 0.702 ± 0.1.

In turn, TKQKKIEDEEII yielded a protein stability index of 0.6314 ± 0.0017.

Sequence TKSQGGLTWASC came in with a protein stability index of 0.626 ± 0.011.

Sequence TLAKSSQNLMCV registered a protein stability index of 0.744 ± 0.085.

On to TLAPPLPPPPLV, for which the protein stability index was determined as 0.731 ± 0.013.

For TLAPVRAFVEFR, the protein stability index is 0.656 ± 0.022.

Take TLCLPPPVAWQH: the protein stability index came out at 0.6544 ± 0.0047.

Sequence TLDNEKKKKRNT showed a protein stability index of 0.674 ± 0.022.

Consider TLDTCVPGANTF, for which the protein stability index was 0.7127 ± 0.001.

The sequence TLGGEITYKVKT yielded a protein stability index of 0.684 ± 0.034.

TLRRYSFTKKNL: the protein stability index is 0.737 ± 0.069.

On to TLRVQNKRKSEE, for which the protein stability index came out at 0.663 ± 0.028.

Take TLSLILPQLPPL: the protein stability index is 0.643 ± 0.071.
